Target: T1, WT1 peptide on HLA-A*02:01 (human)
T1 peptide: VLDFAPPGA
Experiment: multimer staining

B1: TCR of Patient 1, alpha 1 and beta (growing colony) (TCR, V domains shown)
Valpha: AQSVAQPEDQVNVAEGNPLTVKCTYSVSGNPYLFWYVQYPNRGLQFLLKYITGDNLVKGSYGFEAEFNKSQTSFHLKKPSALVSDSALYFCAVRDGGATNKLIFGTGTLLAVQP
Vbeta: EAQVTQNPRYLITVTGKKLTVTCSQNMNHEYMSWYRQDPGLGLRQIYYSMNVEVTDKGDVPEGYKVSRKEKRNFPLILESPSPNQTSLYFCASSTLGGELFFGEGSRLTVL
binding result: recognises

B2: TCR of Patient 2, alpha 1 and beta 1 (TCR, V domains shown)
Valpha: AQSVTQLDSQVPVFEEAPVELRCNYSSSVSVYLFWYVQYPNQGLQLLLKYLSGSTLVESINGFEAEFNKSQTSFHLRKPSVHISDTAEYFCAVTLLSIEPSAGGYQKVTFGIGTKLQVIP
Vbeta: DTGVSQNPRHKITKRGQNVTFRCDPISEHNRLYWYRQTLGQGPEFLTYFQNEAQLEKSRLLSDRFSAERPKGSFSTLEIQRTEQGDSAMYLCASSLEGRAMPRDSHQETQYFGPGTRLLVL
binding result: recognises

B3: TCR of Patient 2, alpha 1 and beta 2 (TCR, V domains shown)
Valpha: AQSVTQLDSQVPVFEEAPVELRCNYSSSVSVYLFWYVQYPNQGLQLLLKYLSGSTLVESINGFEAEFNKSQTSFHLRKPSVHISDTAEYFCAVTLLSIEPSAGGYQKVTFGIGTKLQVIP
Vbeta: DAMVIQNPRYQVTQFGKPVTLSCSQTLNHNVMYWYQQKSSQAPKLLFHYYDKDFNNEADTPDNFQSRRPNTSFCFLDIRSPGLGDAAMYLCATSWGLNEQYFGPGTRLTVT
binding result: recognises

B4: TCR of Patient 2, alpha 2 and beta 1 (TCR, V domains shown)
Valpha: GENVEQHPSTLSVQEGDSAVIKCTYSDSASNYFPWYKQELGKRPQLIIDIRSNVGEKKDQRIAVTLNKTAKHFSLHITETQPEDSAVYFCAATSRDDMRFGAGTRLTVKP
Vbeta: DTGVSQNPRHKITKRGQNVTFRCDPISEHNRLYWYRQTLGQGPEFLTYFQNEAQLEKSRLLSDRFSAERPKGSFSTLEIQRTEQGDSAMYLCASSLEGRAMPRDSHQETQYFGPGTRLLVL
binding result: recognises

B5: TCR of Patient 2, alpha 2 and beta 2 (TCR, V domains shown)
Valpha: GENVEQHPSTLSVQEGDSAVIKCTYSDSASNYFPWYKQELGKRPQLIIDIRSNVGEKKDQRIAVTLNKTAKHFSLHITETQPEDSAVYFCAATSRDDMRFGAGTRLTVKP
Vbeta: DAMVIQNPRYQVTQFGKPVTLSCSQTLNHNVMYWYQQKSSQAPKLLFHYYDKDFNNEADTPDNFQSRRPNTSFCFLDIRSPGLGDAAMYLCATSWGLNEQYFGPGTRLTVT
binding result: recognises

B6: TCR of Patient 3, alpha 1 and beta (TCR, V domains shown)
Valpha: AQKVTQAQTEISVVEKEDVTLDCVYETRDTTYYLFWYKQPPSGELVFLIRRNSFDEQNEISGRYSWNFQKSTSSFNFTITASQVVDSAVYFCALPDKVIFGPGTSLSVIP
Vbeta: DSGVTQTPKHLITATGQRVTLRCSPRSGDLSVYWYQQSLDQGLQFLIQYYNGEERAKGNILERFSAQQFPDLHSELNLSSLELGDSALYFCASSVSAGSTGELFFGEGSRLTVL
binding result: recognises

B7: TCR of Patient 3, alpha 2 and beta (TCR, V domains shown)
Valpha: GQQLNQSPQSMFIQEGEDVSMNCTSSSIFNTWLWYKQEPGEGPVLLIALYKAGELTSNGRLTAQFGITRKDSFLNISASIPSDVGIYFCAGLYATNKLIFGTGTLLAVQP
Vbeta: DSGVTQTPKHLITATGQRVTLRCSPRSGDLSVYWYQQSLDQGLQFLIQYYNGEERAKGNILERFSAQQFPDLHSELNLSSLELGDSALYFCASSVSAGSTGELFFGEGSRLTVL
binding result: recognises

From US20220119477A1 (published 2022)
